{"source": "patent US20120065367A1", "about": "“Radioactively Labeled Substance” (priority 2009, published 2012)", "key": {"[1]": {"design": "species or system ddY-strain male mice", "conditions": "mouse", "experimental": "100 μL (about 1 μCi) of unpurified ^99mTc-(D-Pen-N-hexanoate-cRGDfK)2 or ^99mTc-(D-Pen-N-hexanoate-cRGDfK)2 purified by RP-HPLC was administered to the tail veins of ddY-strain male mice at 6 weeks of age (three mice for each group). The mice were sacrificed 10 minutes, 1, 3, and 6 hours after the administration, and blood samples were collected. The mice were anatomized, and the weight and radioactivity of each organ were measured. The radioactivity in urine and feces excreted by 6 hours after the administration was also measured."}, "[2]": {"system": "Human glioma cell line, U87MG cells", "assay": "Accumulation of radiolabeled drug in tumor and organ of tumor-bearing mice", "format": "in vivo, Balb/c-nu/nu mice", "conditions": "for Ratio of accumulation in tumor to that in tissue: Tumor/Blood / Ratio of accumulation in tumor to that in tissue: Tumor/Intestine / Ratio of accumulation in tumor to that in tissue: Tumor/Liver: 1 hour after administration; for Accumulated amount in tissue: Blood / Accumulated amount in tissue: Intestine / Accumulated amount in tissue: Kidney / Accumulated amount in tissue: Liver / Accumulated amount in tissue: Lung / Accumulated amount in tissue: Stomach / Accumulated amount in tissue: Tumor: 1 hour after tail vein administration", "experimental": "Human glioma cell line, U87MG cells at 5×10^6 cells/mouse were administered subcutaneously in the left femur of Balb/c-nu/nu mice at 4 weeks of age. The mice bearing the tumor of 0.5 g in size were used for a body distribution experiment.\nA ^99mTc-GH solution with [GH]=4.0 mg/mL was obtained by adding 750 μL (1.58 μCi) of a solution of Na[^99mTcO4] in saline eluted from a ^99Mo/^99mTc generator to a lyophilized GH kit (3.0 mg) including α-D-glucoheptonic acid and stannous chloride to perform a reaction at room temperature for 20 minutes. Further, a 2 mM ligand solution was separately prepared by dissolving D-Pen-Hx-cRGDfK (0.8 mg, […]) in 471 μL of 0.1 M Tris hydrochloride buffer (pH 9.0) purged with nitrogen. 140 μL of the ^99mTc-GH solution was added to 140 μL of the ligand solution, they were sufficiently mixed, and then subjected to a reaction at 40° C. for 40 minutes. The reaction solution was diluted to 40-fold with saline so that [Free ligand]=0.025 mM to use as the unpurified sample to be administered.\nA ^99mTc-GH solution with [GH]=4.0 mg/mL was obtained by adding 500 μL (970 μCi) of a solution of Na[^99mTcO4] in saline eluted from a ^99Mo/^99mTc generator to a lyophilized GH kit (2.0 mg) including α-D-glucoheptonic acid and stannous chloride to perform a reaction at room temperature for 20 minutes. Further, a 2 mM ligand solution was separately prepared by dissolving TMEC-[N-hexanoate-c(Arg-Gly-Asp-D-Phe-Lys)]2 (hereinafter, sometimes abbreviated as TMEC-RGD2) (0.7 mg, 0.406 μmol) in 200 μL of 0.1 M acetate buffer (pH 3.5) purged with nitrogen. 200 μL of the ^99mTc-GH solution was added to 200 μL of the ligand solution, they were sufficiently mixed, and then subjected to a reaction at 80° C. for one hour. A half amount of the reaction solution (200 μL) was applied to RP-HPLC (mobile phase: A=10 mM phosphate buffer (pH 6.0), B=MeOH; gradient system: 0 to 18 minutes: B=0 to 60%, 18 to 26 minutes: B=60 to 100%, 26 to 31 minutes: B=100%), a fraction eluted at 24 minutes was collected, the organic solvent was distilled off under reduced pressure, and then the residue was diluted with 10% ethanol/saline to use as the purified sample. Further, the other half amount of the reaction solution (200 μL) was diluted to 40-fold with saline so that [Free ligand]=0.025 mM to use as the unpurified sample to be administered.\n100 μL of the unpurified ^99mTC-(D-Pen-Hx-cRDGfK)2 sample (about 1.1 μCi) was administered to the tail veins of tumor-bearing Balb/c-nu/nu male mice at 10 weeks of age. There were 5 mice in one group. The mice were sacrificed by beheading 1 hour after the administration. Blood, organs of interest, and the tumor were removed, and the weight of and the radioactivity in each organ were measured.\n100 μL of the purified or unpurified ^99mTc-TMEC-RGD2 sample (about 0.5 μCi) was administered to the tail veins of tumor-bearing Balb/c-nu/nu male mice at 10 weeks of age. There were 4 mice in one group. The mice were sacrificed by beheading 1 hour after the administration. Blood, organs of interest, and the tumor were removed, and the weight of and the radioactivity in each organ were measured."}, "[3]": {"assay": "Stability of 99mTc complex in buffer", "format": "physicochemical", "conditions": "0.01 M phosphate buffer (pH 6.0), room temperature, after 1, 3, 6, and 24 hours", "experimental": "11. Examination of Stability\nEach ^99mTc-labeled compound was purified by RP-HPLC (method 1 or method 2), and then the solvent was distilled off under reduced pressure. The residue was redissolved in 400 μL of 0.01 M phosphate buffer (pH 6.0). This solution was stored at room temperature, and after 1, 3, 6, and 24 hours, its radiochemical purity was analyzed by CAE or RP-HPLC."}, "[4]": {"conditions": "administered after removing the excessive ligand by HPLC"}, "[5]": {"conditions": "administered without removing the excessive ligand"}}, "data": [{"substance": "^99mTc-(D-Pen-N-hexanoate-cRGDfK)2 [^99mTc-(Pen-RGD)2]", "values": [{"measurement": "Stability in vivo", "setting": "[1]", "value": "stable in vivo"}, {"measurement": "Ratio accumulated in the tumor to that in each tissue, compared with purified 99mTc-TMEC-RGD2", "setting": "[2]; mouse, in vivo", "value": "equivalence to or higher than"}]}, {"substance": "^99mTc-(D-penicillamine)2 [^99mTc-(D-Pen)2]", "values": [{"measurement": "Stability in a buffer (radiochemical purity)", "setting": "[3]", "value": "higher stability"}]}, {"substance": "^99mTc-TMEC-[N-hexanoate-c(Arg-Gly-Asp-D-Phe-Lys)]2 [^99mTc-TMEC-RGD2]", "values": [{"measurement": "Ratio of accumulation in tumor to that in tissue: Tumor/Blood", "setting": "[2]; [4]", "value": "4.91 (1.07)"}, {"measurement": "Ratio of accumulation in tumor to that in tissue: Tumor/Intestine", "setting": "[2]; [4]", "value": "0.54 (0.10)"}, {"measurement": "Ratio of accumulation in tumor to that in tissue: Tumor/Liver", "setting": "[2]; [4]", "value": "0.65 (0.14)"}, {"measurement": "Accumulated amount in tissue: Blood", "setting": "[2]; [4]", "value": "0.72 (0.02) % injected dose/gram tissue"}, {"measurement": "Accumulated amount in tissue: Intestine", "setting": "[2]; [4]", "value": "6.70 (0.75) % injected dose/gram tissue"}, {"measurement": "Accumulated amount in tissue: Kidney", "setting": "[2]; [4]", "value": "16.68 (3.87) % injected dose/gram tissue"}, {"measurement": "Accumulated amount in tissue: Liver", "setting": "[2]; [4]", "value": "5.47 (0.41) % injected dose/gram tissue"}, {"measurement": "Accumulated amount in tissue: Lung", "setting": "[2]; [4]", "value": "2.33 (0.31) % injected dose/gram tissue"}, {"measurement": "Accumulated amount in tissue: Stomach", "setting": "[2]; [4]", "value": "1.20 (0.16) % injected dose"}, {"measurement": "Accumulated amount in tissue: Tumor", "setting": "[2]; [4]", "value": "increased"}, {"measurement": "Accumulated amount in tissue: Tumor", "setting": "[2]; administered after removing the excessive ligand by HPLC, listed as 99mTC-TMEC-RGD2", "value": "3.54 (0.72) % injected dose/gram tissue"}, {"measurement": "Ratio of accumulation in tumor to that in tissue: Tumor/Blood", "setting": "[2]; [5]", "value": "3.41 (1.55)"}, {"measurement": "Ratio of accumulation in tumor to that in tissue: Tumor/Intestine", "setting": "[2]; [5]", "value": "0.37 (0.13)"}, {"measurement": "Ratio of accumulation in tumor to that in tissue: Tumor/Liver", "setting": "[2]; [5]", "value": "0.67 (0.31)"}, {"measurement": "Accumulated amount in tissue: Blood", "setting": "[2]; [5]", "value": "0.86 (0.33) % injected dose/gram tissue"}, {"measurement": "Accumulated amount in tissue: Intestine", "setting": "[2]; [5]", "value": "7.42 (1.95) % injected dose/gram tissue"}, {"measurement": "Accumulated amount in tissue: Kidney", "setting": "[2]; [5]", "value": "26.82 (8.71) % injected dose/gram tissue"}, {"measurement": "Accumulated amount in tissue: Liver", "setting": "[2]; [5]", "value": "4.57 (2.10) % injected dose/gram tissue"}, {"measurement": "Accumulated amount in tissue: Lung", "setting": "[2]; [5]", "value": "2.38 (0.57) % injected dose/gram tissue"}, {"measurement": "Accumulated amount in tissue: Stomach", "setting": "[2]; [5]", "value": "0.79 (0.30) % injected dose"}]}]}
